Key:
[1] = target: platelet glycoprotein receptor Ib (UniProt P07359)
[2] = target: platelet glycoprotein receptor Ib (UniProt P07359); remark: listed apart in the source

von Willebrand factor in plasma (from UniProt P04275 764-2813) (natural protein)
VWF:RCo activity in factor VIII-deficient plasmas after addition of purified recombinant factor VIII [1]: 4 fold
VWF:RCo activity (ristocetin co-factor assay, aggregation of fixed platelets) in factor VIII-deficient plasmas after addition of polyP65 (2.5 and 7.1 µM) [2]: 2 fold

From PMC9692336
